Key:
[1] = target: T1, His-Avi-Trx-Frmpd1-pept (Frmpd1 residues 895–938) (UniProt A2AKB4 895-938, not fully specified; biotin (biotinylated in E. coli by native BirA ligase)); assay: BLI; in the presence of Gαt*
T1 chain: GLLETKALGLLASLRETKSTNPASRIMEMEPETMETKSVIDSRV

[2] = target: T1, His-Avi-Trx-Frmpd1-pept (Frmpd1 …); assay: BLI

B1: HMT-Gpsm2 (His6-MBP-TEV site-Gpsm2) (natural protein)
chain: MEENLISMREDHSFHVRYRMEASCLELALEGERLCKSGDCRAGVSFFEAAVQVGTEDLKTLSAIYSQLGNAYFYLHDYAKALEYHHHDLTLARTIGDQLGEAKASGNLGNTLKVLGNFDEAIVCCQRHLDISRELNDKVGEARALYNLGNVYHAKGKSFGCPGPQDVGEFPEEVRDALQAAVDFYEENLSLVTALGDRAAQGRAFGNLGNTHYLLGNFRDAVIAHEQRLLIAKEFGDKAAERRAYSNLGNAYIFLGEFETASEYYKKTLLLARQLKDRAVEAQSCYSLGNTYTLLQDYEKAIDYHLKHLAIAQELNDRIGEGRACWSLGNAYTALGNHDQAMHFAEKHLEISREVGDKSGELTARLNLSDLQMVLGLSYSTNNSIMSENTEIDSSLNGVRPKLGRRHSMENMELMKLTPEKVQNWNSEILAKQKPLIAKPSAKLLFVNRLKGKKYKTNSSTKVLQDASNSIDHRIPNSQRKISADTIGDEGFFDLLSRFQSNRMDDQRCCLQEKNCHTASTTTSSTPPKMMLKTSSVPVVSPNTDEFLDLLASSQSRRLDDQRASFSNLPGLRLTQNSQSVLSHLMTNDNKEADEDFFDILVKCQGSRLDDQRCAPPPATTKGPTVPDEDFFSLILRSQGKRMDEQRVLLQRDQNRDTDFGLKDFLQNNALLEFKNSGKKSADH
**Q.** For B1, which Kd [1] is on record?
**A.** 198 nM

**Q.** What about the Kd [2] of the same binder?
**A.** 286 nM
